Test results taken from US20190142971A1, “FORMULATION AND DELIVERY OF MODIFIED NUCLEOSIDE, NUCLEOTIDE, AND NUCLEIC ACID COMPOSITIONS” (ModernaTX, Inc., priority 2013, published 2019).

Tests used:
Type in all cases: in vivo
rats = assay: Example 17: LNP IV, IM, SC in rats, serum EPO/G-CSF ELISA (Table 34); details: for EPO / G-CSF Serum Concentration: LNP 0.05 mg/kg
Procedure: (§1) Formulations, listed in Table 33, were characterized by particle size, zeta potential, and encapsulation.
LNP formulations, shown in Table 33 (above), were administered to rats (n=5) intravenously (IV), intramuscularly (IM) or subcutaneously (SC) at a single modified mRNA dose of 0.05 mg/kg. A control group of rats (n=4) was untreated. […] The rats administered EPO modified mRNA intravenously were also bled at 7 days.

mice = assay: Example 19A: LNP IV in mice, serum EPO/G-CSF ELISA (Table 36)
Procedure: as §1
LNP formulations, shown in Table 33 (above), were administered to mice (n=4) intravenously (IV) at a single modified mRNA dose 0.05 mg/kg or 0.005 mg/kg. There was also 3 control groups of mice (n=4) that were untreated. The mice were bled at 2 hours, 8 hours, 24 hours, 48 hours and 72 hours after they were administered with G-CSF or EPO modified mRNA formulations to determine the protein expression. Protein expression of G-CSF and EPO were determined using ELISA.

[1] = tested on: non-human primates (cynomolgus monkey); assay: Example 21: LNP IV in non-human primates, serum EPO/G-CSF ELISA (Table 37); details: for Average Serum Concentration / Female NHP Serum Concentration / Male NHP Serum Concentration: 0.05 mg/kg IV
Procedure: as §1
LNP formulations, shown in Table 33 (above), were administered to non-human primates (NHP) (cynomolgus monkey) (n=2) as a bolus intravenous injection (IV) over approximately 30 seconds using a hypodermic needle, which may be attached to a syringe/abbocath or butterfly if needed. The NHP were administered a single modified mRNA IV dose of 0.05 mg/kg of EPO or G-CSF or 0.005 mg/kg of EPO in a dose volume of 0.5 mL/kg. The NHPs were bled 5-6 days before dosing with the modified mRNA LNP formulations to determine protein expression in the serum and a baseline complete blood count. After administration with the modified mRNA formulation the NHP were bled at 8, 24, 48 and 72 hours to determined protein expression. At 24 and 72 hours after administration the complete blood count of the NHP was also determined. Protein expression of G-CSF and EPO was determined by ELISA. Urine from the NHPs was collected over the course of the entire experiment and analyzed to evaluate clinical safety. Samples were collected from the NHPs after they were administered with G-CSF or EPO modified mRNA formulations to determine protein expression using ELISA. Clinical chemistry, hematology, urinalysis and cytokines of the non-human primates were also analyzed.

B1: G-CSF: modified mRNA encoding human G-CSF, SEQ ID NO: 4, Cap1, fully modified with 5-methylcytosine and pseudouridine; LNP-formulated in Examples 16-22 (nucleic acid)
chain: GGGAAAUAAGAGAGAAAAGAAGAGUAAGAAGAAAUAUAAGAGCCACCAUGGCCGGUCCCGCGACCCAAAGCCCCAUGAAACUUAUGGCCCUGCAGUUGCUGCUUUGGCACUCGGCCCUCUGGACAGUCCAAGAAGCGACUCCUCUCGGACCUGCCUCAUCGUUGCCGCAGUCAUUCCUUUUGAAGUGUCUGGAGCAGGUGCGAAAGAUUCAGGGCGAUGGAGCCGCACUCCAAGAGAAGCUCUGCGCGACAUACAAACUUUGCCAUCCCGAGGAGCUCGUACUGCUCGGGCACAGCUUGGGGAUUCCCUGGGCUCCUCUCUCGUCCUGUCCGUCGCAGGCUUUGCAGUUGGCAGGGUGCCUUUCCCAGCUCCACUCCGGUUUGUUCUUGUAUCAGGGACUGCUGCAAGCCCUUGAGGGAAUCUCGCCAGAAUUGGGCCCGACGCUGGACACGUUGCAGCUCGACGUGGCGGAUUUCGCAACAACCAUCUGGCAGCAGAUGGAGGAACUGGGGAUGGCACCCGCGCUGCAGCCCACGCAGGGGGCAAUGCCGGCCUUUGCGUCCGCGUUUCAGCGCAGGGCGGGUGGAGUCCUCGUAGCGAGCCACCUUCAAUCAUUUUUGGAAGUCUCGUACCGGGUGCUGAGACAUCUUGCGCAGCCGUGAAGCGCUGCCUUCUGCGGGGCUUGCCUUCUGGCCAUGCCCUUCUUCUCUCCCUUGCACCUGUACCUCUUGGUCUUUGAAUAAAGCCUGAGUAGGAAG
modifications: Cap1, 5-methylcytosine, pseudouridine
- protein expression detectable out to (rats; IV): 7 days
- EPO / G-CSF Serum Concentration (rats; IM, 2 hours): 1620.4 pg/mL
- EPO / G-CSF Serum Concentration (rats; IM, 8 hours): 7910.4 pg/mL
- EPO / G-CSF Serum Concentration (rats; IM, 24 hours): 893.3 pg/mL
- EPO / G-CSF Serum Concentration (rats; IM, 48 hours): OSC
- EPO / G-CSF Serum Concentration (rats; IM, 5 days): OSC
- EPO / G-CSF Serum Concentration (rats; IV, 2 hours): 31,331.9 pg/ml
- EPO / G-CSF Serum Concentration (rats; IV, 8 hours): 70,532.4 pg/ml
- EPO / G-CSF Serum Concentration (rats; IV, 24 hours): 5,738.6 pg/ml
- EPO / G-CSF Serum Concentration (rats; IV, 48 hours): 233.8 pg/mL
- EPO / G-CSF Serum Concentration (rats; IV, 5 days): 60.4 pg/mL
- EPO / G-CSF Serum Concentration (rats; SC, 2 hours): 80.3 pg/mL
- EPO / G-CSF Serum Concentration (rats; SC, 8 hours): 164.2 pg/mL
- EPO / G-CSF Serum Concentration (rats; SC, 24 hours): OSC
- EPO / G-CSF Serum Concentration (rats; SC, 48 hours): OSC
- EPO / G-CSF Serum Concentration (rats; SC, 5 days): OSC
- protein expression detectable to (rats; subcutaneous and intramuscular): at least 8 hours
- EPO / G-CSF Serum Concentration (mice; 0.005 mg/kg, 2 hours): 3,447.8 pg/ml
- EPO / G-CSF Serum Concentration (mice; 0.005 mg/kg, 8 hours): 11,454.0 pg/ml
- EPO / G-CSF Serum Concentration (mice; 0.005 mg/kg, 24 hours): 4,960.2 pg/ml
- EPO / G-CSF Serum Concentration (mice; 0.005 mg/kg, 48 hours): 686.4 pg/mL
- EPO / G-CSF Serum Concentration (mice; 0.05 mg/kg, 2 hours): 20,951.4 pg/ml
- EPO / G-CSF Serum Concentration (mice; 0.05 mg/kg, 8 hours): 70,012.8 pg/ml
- EPO / G-CSF Serum Concentration (mice; 0.05 mg/kg, 24 hours): 19,356.2 pg/ml
- EPO / G-CSF Serum Concentration (mice; 0.05 mg/kg, 48 hours): 1,963.0 pg/ml
- EPO / G-CSF Serum Concentration (mice; 0.05 mg/kg, 72 hours): 47.3 pg/mL
- Average Serum Concentration ([1]; 8 hours): 2,506 pg/ml
- Female NHP Serum Concentration ([1]; 8 hours): 3289 pg/mL
- Male NHP Serum Concentration ([1]; 8 hours): 1722 pg/mL
- Average Serum Concentration ([1]; 24 hours): 515 pg/mL
- Female NHP Serum Concentration ([1]; 24 hours): 722 pg/mL
- Male NHP Serum Concentration ([1]; 24 hours): 307 pg/mL
- Average Serum Concentration ([1]; 48 hours): 0 pg/mL
- Female NHP Serum Concentration ([1]; 48 hours): 0 pg/mL
- Male NHP Serum Concentration ([1]; 48 hours): 0 pg/mL
- Average Serum Concentration ([1]; 72 hours): 0 pg/mL
- Female NHP Serum Concentration ([1]; 72 hours): 0 pg/mL
- Male NHP Serum Concentration ([1]; 72 hours): 0 pg/mL
- Average Serum Concentration ([1]; Pre-bleed): 0 pg/mL
- Female NHP Serum Concentration ([1]; Pre-bleed): 0 pg/mL
- Male NHP Serum Concentration ([1]; Pre-bleed): 0 pg/mL
- protein expression detectable out to ([1]; NHP IV, 0.05 mg/kg): 24 h
